Experimental findings from patent US20210024615A1 (LIVERPOOL SCHOOL OF TROPICAL MEDICINE, published 2021) are described below.

This experiment concerns the target T1, IgG1-Fc (human, UniProt P01857 104-330 = IgG part).
T1 construct: domain: Fc
Put plainly: ELISA. (ELISA stands for enzyme-linked immunosorbent assay.)

B1: Siglec-3 (receptor, UniProt P20138 18-259, looked up)
chain: DPNFWLQVQESVTVQEGLCVLVPCTFFHPIPYYDKNSPVHGYWFREGAIISRDSPVATNKLDQEVQEETQGRFRLLGDPSRNNCSLSIVDARRRDNGSYFFRMERGSTKYSYKSPQLSVHVTDLTHRPKILIPGTLEPGHSKNLTCSVSWACEQGTPPIFSWLSAAPTSLGPRTTHSSVLIITPRPQDHGTNLTCQVKFAGAGVTTERTIQLNVTYVPQNPTTGIFPGDGSGKQETRAGVVH
Consider B1, for which the binding result was “no binding”.

B2: tetrameric human DC-SIGN (receptor, UniProt Q9NNX6 66-404, looked up)
chain: SISQEQSRQDAIYQNLTQLKAAVGELSEKSKLQEIYQELTQLKAAVGELPEKSKLQEIYQELTRLKAAVGELPEKSKLQEIYQELTWLKAAVGELPEKSKMQEIYQELTRLKAAVGELPEKSKQQEIYQELTRLKAAVGELPEKSKQQEIYQELTRLKAAVGELPEKSKQQEIYQELTQLKAAVERLCHPCPWEWTFFQGNCYFMSNSQRNWHDSITACKEVGAQLVVIKSAEEQNFLQLQSSRSNRFTWMGLSDLNQEGTWQWVDGSPLLPSFKQYWNRGEPNNVGEEDCAEFSGNGWNDDKCNLAKFWICKKSAASCSRDEEQFLSPAPATPNPPPA
As for B2, the binding result was “no binding”.

B3: clec-4d (receptor, UniProt Q8WXI8 39-215, looked up)
chain: CLVTHHNFSRCKRGTGVHKLEHHAKLKCIKEKSELKSAEGSTWNCCPIDWRAFQSNCYFPLTDNKTWAESERNCSGMGAHLMTISTEAEQNFIIQFLDRRLSYFLGLRDENAKGQWRWVDQTPFNPRRVFWHKNEPDNSQGENCVVLVYNQDKWAWNDVPCNFEASRICKIPGTTLN
Consider B3, for which the binding result is given as “no binding”.

B4: MMR (receptor, UniProt P22897 19-1383, looked up)
chain: LLDTRQFLIYNEDHKRCVDAVSPSAVQTAACNQDAESQKFRWVSESQIMSVAFKLCLGVPSKTDWVAITLYACDSKSEFQKWECKNDTLLGIKGEDLFFNYGNRQEKNIMLYKGSGLWSRWKIYGTTDNLCSRGYEAMYTLLGNANGATCAFPFKFENKWYADCTSAGRSDGWLWCGTTTDYDTDKLFGYCPLKFEGSESLWNKDPLTSVSYQINSKSALTWHQARKSCQQQNAELLSITEIHEQTYLTGLTSSLTSGLWIGLNSLSFNSGWQWSDRSPFRYLNWLPGSPSAEPGKSCVSLNPGKNAKWENLECVQKLGYICKKGNTTLNSFVIPSESDVPTHCPSQWWPYAGHCYKIHRDEKKIQRDALTTCRKEGGDLTSIHTIEELDFIISQLGYEPNDELWIGLNDIKIQMYFEWSDGTPVTFTKWLRGEPSHENNRQEDCVVMKGKDGYWADRGCEWPLGYICKMKSRSQGPEIVEVEKGCRKGWKKHHFYCYMIGHTLSTFAEANQTCNNENAYLTTIEDRYEQAFLTSFVGLRPEKYFWTGLSDIQTKGTFQWTIEEEVRFTHWNSDMPGRKPGCVAMRTGIAGGLWDVLKCDEKAKFVCKHWAEGVTHPPKPTTTPEPKCPEDWGASSRTSLCFKLYAKGKHEKKTWFESRDFCRALGGDLASINNKEEQQTIWRLITASGSYHKLFWLGLTYGSPSEGFTWSDGSPVSYENWAYGEPNNYQNVEYCGELKGDPTMSWNDINCEHLNNWICQIQKGQTPKPEPTPAPQDNPPVTEDGWVIYKDYQYYFSKEKETMDNARAFCKRNFGDLVSIQSESEKKFLWKYVNRNDAQSAYFIGLLISLDKKFAWMDGSKVDYVSWATGEPNFANEDENCVTMYSNSGFWNDINCGYPNAFICQRHNSSINATTVMPTMPSVPSGCKEGWNFYSNKCFKIFGFMEEERKNWQEARKACIGFGGNLVSIQNEKEQAFLTYHMKDSTFSAWTGLNDVNSEHTFLWTDGRGVHYTNWGKGYPGGRRSSLSYEDADCVVIIGGASNEAGKWMDDTCDSKRGYICQTRSDPSLTNPPATIQTDGFVKYGKSSYSLMRQKFQWHEAETYCKLHNSLIASILDPYSNAFAWLQMETSNERVWIALNSNLTDNQYTWTDKWRVRYTNWAADEPKLKSACVYLDLDGYWKTAHCNESFYFLCKRSDEIPATEPPQLPGRCPESDHTAWIPFHGHCYYIESSYTRNWGQASLECLRMGSSLVSIESAAESSFLSYRVEPLKSKTNFWIGLFRNVEGTWLWINNSPVSFVNWNTGDPSGERNDCVALHASSGFWSNIHCSSYKGYICKRPKIIDAKPTHELLTTKADTRKMDPSK
With B4, the binding result was “no binding”.

B5: CD23 (receptor, UniProt P06734 48-321, looked up)
chain: DTTQSLKQLEERAARNVSQVSKNLESHHGDQMAQKSQSTQISQELEELRAEQQRLKSQDLELSWNLNGLQADLSSFKSQELNERNEASDLLERLREEVTKLRMELQVSSGFVCNTCPEKWINFQRKCYYFGKGTKQWVHARYACDDMEGQLVSIHSPEEQDFLTKHASHTGSWIGLRNLDLKGEFIWVDGSHVDYSNWAPGEPTSRSQGEDCVMMRGSGRWNDAFCDRKLGAWVCDRLATCTPPASEGSAESMGPDSRPDPDGRLPTPSAPLHS
As to B5, the binding result was “no binding”.

B6: dectin-1 (receptor, UniProt Q9BXN2-2 66-201, looked up)
chain: TMGVLSSPCPPNWIIYEKSCYLFSMSLNSWDGSKRQCWQLGSNLLKIDSSNELGFIVKQVSSQPDNSFWIGLSRPQTEVPWLWEDGSTFSSNLFQIRTTATQENPSPNCVWIHVSVIYDQLCSVPSYSICEKKFSM
notes: also called dec-1
For the molecule B6, the binding result is recorded as “no binding”.

B7: Siglec-4 (receptor, UniProt P20916 20-516, looked up)
chain: GHWGAWMPSSISAFEGTCVSIPCRFDFPDELRPAVVHGVWYFNSPYPKNYPPVVFKSRTQVVHESFQGRSRLLGDLGLRNCTLLLSNVSPELGGKYYFRGDLGGYNQYTFSEHSVLDIVNTPNIVVPPEVVAGTEVEVSCMVPDNCPELRPELSWLGHEGLGEPAVLGRLREDEGTWVQVSLLHFVPTREANGHRLGCQASFPNTTLQFEGYASMDVKYPPVIVEMNSSVEAIEGSHVSLLCGADSNPPPLLTWMRDGTVLREAVAESLLLELEEVTPAEDGVYACLAENAYGQDNRTVGLSVMYAPWKPTVNGTMVAVEGETVSILCSTQSNPDPILTIFKEKQILSTVIYESELQLELPAVSPEDDGEYWCVAENQYGQRATAFNLSVEFAPVLLLESHCAAARDTVQCLCVVKSNPEPSVAFELPSRNVTVNESEREFVYSERSGLVLTSILTLRGQAQAPPRVICTARNLYGAKSLELPFQGAHRLMWAKIGP
notes: also called MAG
As to B7, the binding result is “no binding”.

B8: clec-4a (receptor, UniProt Q9UMR7 70-237, looked up)
chain: QKYSQLLEKKTTKELVHTTLECVKKNMPVEETAWSCCPKNWKSFSSNCYFISTESASWQDSEKDCARMEAHLLVINTQEEQDFIFQNLQEESAYFVGLSDPEGQRHWQWVDQTPYNESSTFWHPREPSDPNERCVVLNFRKSPKRWGWNDVNCLGPQRSVCEMMKIHL
notes: also called DCIR
For the molecule B8, the binding result is “no binding”.

B9: dectin-2 (receptor, UniProt Q6EIG7 46-209, looked up)
chain: TYGETGKRLSELHSYHSSLTCFSEGTKVPAWGCCPASWKSFGSSCYFISSEEKVWSKSEQNCVEMGAHLVVFNTEAEQNFIVQQLNESFSYFLGLSDPQGNNNWQWIDKTPYEKNVRFWHLGEPNHSAEQCASIVFWKPTGWGWNDVICETRRNSICEMNKIYL
notes: also called dec-2
On to B9, for which the binding result is reported as “no binding”.
